For the experiment, the target named is T1, RecD2-His (Bacillus subtilis RecD2 helicase with C-terminal His tag) (B. subtilis, UniProt O34481 1-798).
T1 sequence (looked up): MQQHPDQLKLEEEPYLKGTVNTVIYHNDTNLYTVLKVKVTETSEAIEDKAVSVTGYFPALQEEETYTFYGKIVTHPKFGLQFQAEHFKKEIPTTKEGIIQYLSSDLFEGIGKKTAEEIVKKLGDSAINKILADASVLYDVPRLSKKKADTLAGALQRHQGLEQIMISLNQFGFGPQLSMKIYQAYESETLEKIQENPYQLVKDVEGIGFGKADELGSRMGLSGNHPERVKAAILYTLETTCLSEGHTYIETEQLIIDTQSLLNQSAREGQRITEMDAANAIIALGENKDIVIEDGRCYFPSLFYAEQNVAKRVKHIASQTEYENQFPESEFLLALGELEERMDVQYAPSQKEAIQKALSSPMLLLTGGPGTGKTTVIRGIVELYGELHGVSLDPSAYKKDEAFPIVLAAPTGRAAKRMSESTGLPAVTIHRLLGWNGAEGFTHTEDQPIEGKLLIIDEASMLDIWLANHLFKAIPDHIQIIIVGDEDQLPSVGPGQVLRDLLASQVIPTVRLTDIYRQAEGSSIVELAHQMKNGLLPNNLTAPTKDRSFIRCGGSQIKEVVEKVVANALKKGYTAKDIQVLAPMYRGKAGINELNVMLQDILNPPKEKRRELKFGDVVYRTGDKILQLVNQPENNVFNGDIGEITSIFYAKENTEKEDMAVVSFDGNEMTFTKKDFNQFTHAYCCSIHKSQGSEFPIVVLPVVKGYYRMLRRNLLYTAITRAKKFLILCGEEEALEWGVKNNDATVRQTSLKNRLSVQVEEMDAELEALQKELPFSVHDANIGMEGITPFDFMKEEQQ
Briefly: far-Western, overlay or dot blot.

B1: SsbA (Bacillus subtilis single-stranded DNA binding protein) (natural protein, B. subtilis, UniProt P37455 1-172, looked up)
chain: MLNRVVLVGRLTKDPELRYTPNGAAVATFTLAVNRTFTNQSGEREADFINCVTWRRQAENVANFLKKGSLAGVDGRLQTRNYENQQGQRVFVTEVQAESVQFLEPKNGGGSGSGGYNEGNSGGGQYFGGGQNDNPFGGNQNNQRRNQGNSFNDDPFANDGKPIDISDDDLPF
Regarding B1, the binding result is given as “binds”.

B2: RecA (Bacillus subtilis recombinase) (natural protein, B. subtilis, UniProt P16971 1-348, looked up)
chain: MSDRQAALDMALKQIEKQFGKGSIMKLGEKTDTRISTVPSGSLALDTALGIGGYPRGRIIEVYGPESSGKTTVALHAIAEVQQQGGQAAFIDAEHALDPVYAQKLGVNIEELLLSQPDTGEQALEIAEALVRSGAVDIVVVDSVAALVPKAEIEGDMGDSHVGLQARLMSQALRKLSGAINKSKTIAIFINQIREKVGVMFGNPETTPGGRALKFYSSVRLEVRRAEQLKQGNDVMGNKTKIKVVKNKVAPPFRTAEVDIMYGEGISKEGEIIDLGTELDIVQKSGSWYSYEEERLGQGRENAKQFLKENKDIMLMIQEQIREHYGLDNNGVVQQQAEETQEELEFEE
As to B2, the binding result is given as “binds”.
